Kd data for 20 molecules are collected here from patent US20260297187 (published 2026).

T1: CEACAM1-his (human)
T1 chain: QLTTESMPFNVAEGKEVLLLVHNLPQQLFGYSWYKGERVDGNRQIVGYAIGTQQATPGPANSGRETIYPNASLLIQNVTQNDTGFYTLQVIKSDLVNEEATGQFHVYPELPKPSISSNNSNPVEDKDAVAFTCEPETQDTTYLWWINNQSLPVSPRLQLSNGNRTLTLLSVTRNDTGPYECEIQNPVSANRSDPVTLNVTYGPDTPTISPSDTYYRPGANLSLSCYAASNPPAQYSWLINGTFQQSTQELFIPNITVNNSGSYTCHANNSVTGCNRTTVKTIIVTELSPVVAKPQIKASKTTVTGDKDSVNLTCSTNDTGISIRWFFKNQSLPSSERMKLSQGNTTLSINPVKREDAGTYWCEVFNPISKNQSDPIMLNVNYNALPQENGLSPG

B1: h2C10.G4.H0aL0a (antibody, V domains shown)
VH: QVQLVQSGAEVKKPGASVKVSCKASGFAFTNYLIEWVRQAPGQGLEWMGVLNPGSGATNYNEKFKGRVTMTRDTSISTAYMELSRLRSDDTAVYYCARGIYGGYFAMDYWGQGTLVTVSS
VL: DIQMTQSPSSLSASVGDRVTITCRASQDITTYLNWYQQKPGKAPKLLIYYTSRLHSGVPSRFSGSGSGTDFTFTISSLQPEDIATYYCQQGNTLPRTFGQGTKVEIK
B2: h2C10.G4.H0aL3 (antibody, V domains shown)
VH: QVQLVQSGAEVKKPGASVKVSCKASGFAFTNYLIEWVRQAPGQGLEWMGVLNPGSGATNYNEKFKGRVTMTRDTSISTAYMELSRLRSDDTAVYYCARGIYGGYFAMDYWGQGTLVTVSS
VL: DIQMTQSPSSLSASVGDRVTITCRASQDITTYLNWYQQKPGGAPKLLIYYTSRLHSGVPSRFSGSGSGTDYTLTISSLQPEDIATYYCQQGNTLPRTFGGGTKLEIK
B3: h2C10.G4.H3L4 (antibody, V domains shown)
VH: QVQLVQSGAEVKKPGASVKVSCKASGFAFTNYLIEWVRQAPGQGLEWMGVLNPGSGATNYNEKFKGRVTMTADTSISTAYMELSRLRSDDTAVYYCARGIYGGYFAMDYWGQGTLVTVSS
VL: DIQMTQSPSSLSASVGDRVTITCRASQDITTYLNWYQQKPGGAPKLLIYYTSRLHSGVPSRFSGSGSGTDFTLTISSLQPEDIATYYCQQGNTLPRTFGGGTKLEIK
B4: h2C10.G4.H3L3 (antibody, V domains shown)
VH: QVQLVQSGAEVKKPGASVKVSCKASGFAFTNYLIEWVRQAPGQGLEWMGVLNPGSGATNYNEKFKGRVTMTADTSISTAYMELSRLRSDDTAVYYCARGIYGGYFAMDYWGQGTLVTVSS
VL: DIQMTQSPSSLSASVGDRVTITCRASQDITTYLNWYQQKPGGAPKLLIYYTSRLHSGVPSRFSGSGSGTDYTLTISSLQPEDIATYYCQQGNTLPRTFGGGTKLEIK
B5: h2C10.G4.H0aL0b (antibody, V domains shown)
VH: QVQLVQSGAEVKKPGASVKVSCKASGFAFTNYLIEWVRQAPGQGLEWMGVLNPGSGATNYNEKFKGRVTMTRDTSISTAYMELSRLRSDDTAVYYCARGIYGGYFAMDYWGQGTLVTVSS
VL: DIQMTQSPSSLSASVGDRVTITCRASQDITTYLNWYQQKPGKAPKLLIYYTSRLHSGVPSRFSGSGSGTDFTLTISSLQPEDFATYYCQQGNTLPRTFGQGTKVEIK
B6: h2C10.G4.H0aL1 (antibody, V domains shown)
VH: QVQLVQSGAEVKKPGASVKVSCKASGFAFTNYLIEWVRQAPGQGLEWMGVLNPGSGATNYNEKFKGRVTMTRDTSISTAYMELSRLRSDDTAVYYCARGIYGGYFAMDYWGQGTLVTVSS
VL: DIQMTQSPSSLSASVGDRVTITCRASQDITTYLNWYQQKPGKAPKLLIYYTSRLHSGVPSRFSGSGSGTDFTLTISSLQPEDIATYYCQQGNTLPRTFGQGTKVEIK
B7: h2C10.G4.H3L2 (antibody, V domains shown)
VH: QVQLVQSGAEVKKPGASVKVSCKASGFAFTNYLIEWVRQAPGQGLEWMGVLNPGSGATNYNEKFKGRVTMTADTSISTAYMELSRLRSDDTAVYYCARGIYGGYFAMDYWGQGTLVTVSS
VL: DIQMTQSTSSLSASVGDRVTITCRASQDITTYLNWYQQKPGGAPKLLIYYTSRLHSGVPSRFSGSGSGTDYTLTISSLQPEDIATYYCQQGNTLPRTFGGGTKLEIK
B8: h2C10.G4.H3L1 (antibody, V domains shown)
VH: QVQLVQSGAEVKKPGASVKVSCKASGFAFTNYLIEWVRQAPGQGLEWMGVLNPGSGATNYNEKFKGRVTMTADTSISTAYMELSRLRSDDTAVYYCARGIYGGYFAMDYWGQGTLVTVSS
VL: DIQMTQSPSSLSASVGDRVTITCRASQDITTYLNWYQQKPGKAPKLLIYYTSRLHSGVPSRFSGSGSGTDFTLTISSLQPEDIATYYCQQGNTLPRTFGQGTKVEIK
B9: h4D10.G4.H4L1 (antibody, V domains shown)
VH: QVQLVQSGAEVKKPGASVKVSCKASGYTFSSYVIHWVRQAPGQGLEWMGYFNPYNNGTNYNENFKGRVTMTADTSTSTVYMELSSLRSEDTAVYYCARYYYASGSLYFDYWGQGTTVTVSS
VL: DIQLTQSPSFLSASVGDRVTITCSASSSVSYMHWYQQKPGKAPKPLIYEISKLASGVPSRFSGSGSGTEFTLTISSLQPEDAATYYCQQWNYPLITFGGGTKVEIK
B10: h4D10.G4.H3L1 (antibody, V domains shown)
VH: QVQLVQSGAEVKKPGASVKVSCKASGYTFSSYVIHWVRQAPGQGLEWMGYFNPYNNGTNYNENFKGRVTMTADTSISTAYMELSRLRSDDTAVYYCARYYYASGSLYFDYWGQGTLVTVSS
VL: DIQLTQSPSFLSASVGDRVTITCSASSSVSYMHWYQQKPGKAPKPLIYEISKLASGVPSRFSGSGSGTEFTLTISSLQPEDAATYYCQQWNYPLITFGGGTKVEIK
B11: h4D10.G4.H0bL2 (antibody, V domains shown)
VH: QVQLVQSGAEVKKPGASVKVSCKASGYTFSSYVIHWVRQAPGQGLEWMGYFNPYNNGTNYNENFKGRVTMTRDTSTSTVYMELSSLRSEDTAVYYCARYYYASGSLYFDYWGQGTTVTVSS
VL: DIQMTQSPSTLSASVGDRVTITCSASSSVSYMHWYQQKPGKAPKPLIYEISKLASGVPSRFSGSGSGTEFTLTISSLQPDDAATYYCQQWNYPLITFGGGTKVEIK
B12: h4D10.G4.H0bL1 (antibody, V domains shown)
VH: QVQLVQSGAEVKKPGASVKVSCKASGYTFSSYVIHWVRQAPGQGLEWMGYFNPYNNGTNYNENFKGRVTMTRDTSTSTVYMELSSLRSEDTAVYYCARYYYASGSLYFDYWGQGTTVTVSS
VL: DIQLTQSPSFLSASVGDRVTITCSASSSVSYMHWYQQKPGKAPKPLIYEISKLASGVPSRFSGSGSGTEFTLTISSLQPEDAATYYCQQWNYPLITFGGGTKVEIK
B13: h4D10.G4.H3L2 (antibody, V domains shown)
VH: QVQLVQSGAEVKKPGASVKVSCKASGYTFSSYVIHWVRQAPGQGLEWMGYFNPYNNGTNYNENFKGRVTMTADTSISTAYMELSRLRSDDTAVYYCARYYYASGSLYFDYWGQGTLVTVSS
VL: DIQMTQSPSTLSASVGDRVTITCSASSSVSYMHWYQQKPGKAPKPLIYEISKLASGVPSRFSGSGSGTEFTLTISSLQPDDAATYYCQQWNYPLITFGGGTKVEIK
B14: h4D10.G4.H4(N56Q Y100V)L2 (antibody, V domains shown)
VH: QVQLVQSGAEVKKPGASVKVSCKASGYTFSSYVIHWVRQAPGQGLEWMGYFNPYNQGTNYNENFKGRVTMTADTSTSTVYMELSSLRSEDTAVYYCARYVYASGSLYFDYWGQGTTVTVSS
VL: DIQMTQSPSTLSASVGDRVTITCSASSSVSYMHWYQQKPGKAPKPLIYEISKLASGVPSRFSGSGSGTEFTLTISSLQPDDAATYYCQQWNYPLITFGGGTKVEIK
B15: h4D10.G4.H4(N56W Y100F)L2 (antibody, V domains shown)
VH: QVQLVQSGAEVKKPGASVKVSCKASGYTFSSYVIHWVRQAPGQGLEWMGYFNPYNWGTNYNENFKGRVTMTADTSTSTVYMELSSLRSEDTAVYYCARYFYASGSLYFDYWGQGTTVTVSS
VL: DIQMTQSPSTLSASVGDRVTITCSASSSVSYMHWYQQKPGKAPKPLIYEISKLASGVPSRFSGSGSGTEFTLTISSLQPDDAATYYCQQWNYPLITFGGGTKVEIK
B16: h4D10.G4.H4(N56W Y100V)L2 (antibody, V domains shown)
VH: QVQLVQSGAEVKKPGASVKVSCKASGYTFSSYVIHWVRQAPGQGLEWMGYFNPYNWGTNYNENFKGRVTMTADTSTSTVYMELSSLRSEDTAVYYCARYVYASGSLYFDYWGQGTTVTVSS
VL: DIQMTQSPSTLSASVGDRVTITCSASSSVSYMHWYQQKPGKAPKPLIYEISKLASGVPSRFSGSGSGTEFTLTISSLQPDDAATYYCQQWNYPLITFGGGTKVEIK
B17: h4D10.G4.H4(N56V Y100F)L2 (antibody, V domains shown)
VH: QVQLVQSGAEVKKPGASVKVSCKASGYTFSSYVIHWVRQAPGQGLEWMGYFNPYNVGTNYNENFKGRVTMTADTSTSTVYMELSSLRSEDTAVYYCARYFYASGSLYFDYWGQGTTVTVSS
VL: DIQMTQSPSTLSASVGDRVTITCSASSSVSYMHWYQQKPGKAPKPLIYEISKLASGVPSRFSGSGSGTEFTLTISSLQPDDAATYYCQQWNYPLITFGGGTKVEIK
B18: h4D10.G4.H4(N56I Y100V)L2 (antibody, V domains shown)
VH: QVQLVQSGAEVKKPGASVKVSCKASGYTFSSYVIHWVRQAPGQGLEWMGYFNPYNIGTNYNENFKGRVTMTADTSTSTVYMELSSLRSEDTAVYYCARYVYASGSLYFDYWGQGTTVTVSS
VL: DIQMTQSPSTLSASVGDRVTITCSASSSVSYMHWYQQKPGKAPKPLIYEISKLASGVPSRFSGSGSGTEFTLTISSLQPDDAATYYCQQWNYPLITFGGGTKVEIK
B19: h4D10.G4.H4(N56V Y100W)L2 (antibody, V domains shown)
VH: QVQLVQSGAEVKKPGASVKVSCKASGYTFSSYVIHWVRQAPGQGLEWMGYFNPYNVGTNYNENFKGRVTMTADTSTSTVYMELSSLRSEDTAVYYCARYWYASGSLYFDYWGQGTTVTVSS
VL: DIQMTQSPSTLSASVGDRVTITCSASSSVSYMHWYQQKPGKAPKPLIYEISKLASGVPSRFSGSGSGTEFTLTISSLQPDDAATYYCQQWNYPLITFGGGTKVEIK
B20: h4D10.G4.H4(N56W Y100W)L2 (antibody, V domains shown)
VH: QVQLVQSGAEVKKPGASVKVSCKASGYTFSSYVIHWVRQAPGQGLEWMGYFNPYNWGTNYNENFKGRVTMTADTSTSTVYMELSSLRSEDTAVYYCARYWYASGSLYFDYWGQGTTVTVSS
VL: DIQMTQSPSTLSASVGDRVTITCSASSSVSYMHWYQQKPGKAPKPLIYEISKLASGVPSRFSGSGSGTEFTLTISSLQPDDAATYYCQQWNYPLITFGGGTKVEIK

The first test deals with T1, CEACAM1-his. The experiment in a line: BLI.
In the case of B1, the Kd (in general, the free concentration of one partner at which half of the binding sites on the other are occupied at equilibrium, for simple one-to-one binding) was 2.15 nM.

With B2, binding was characterised by a dissociation constant (Kd) of 0.944 nM.

As for B3, binding was characterised by a dissociation constant (Kd) of 2 nM.

As to B4, the Kd was 1.13 nM.

B5 registered a Kd of 2.23 nM.

In turn, B6 yielded an equilibrium dissociation constant (Kd) of 1.81 nM.

Turning to B7, the affinity, expressed as Kd, was 0.927 nM.

In turn, B8 registered a Kd of 2.18 nM.

B9 returned a Kd of 1.53 nM.

B10 gave a Kd of 1.46 nM.

In turn, B11 came in with a Kd of 2.28 nM.

B12 registered a Kd of 2.16 nM.

B13 registered a Kd of 1.77 nM.

In another test the target is T1, CEACAM1-his. As to the kind of experiment: BLI. The source holds these as a separate data set. (In BLI a coated tip is dipped into the sample, and binding shifts an interference pattern.)
B14: binding was characterised by a dissociation constant (Kd) of 5.86 nM.

B15 had a Kd of 1.13 nM.

As to B16, the affinity, expressed as Kd, was 4.97 nM.

Regarding B17, binding was put at a Kd of 2.75 nM.

Regarding B18, binding was put at a Kd of 6.22 nM.

The molecule B19 yielded a Kd of 4.87 nM.

In turn, B20 showed a Kd of 3.39 nM.
